T1: human GITR expressed on cells (human, UniProt Q9Y5U5 26-241)
T1 construct: whole, on cells; also called TNFRSF18; CD357
T1 sequence (looked up): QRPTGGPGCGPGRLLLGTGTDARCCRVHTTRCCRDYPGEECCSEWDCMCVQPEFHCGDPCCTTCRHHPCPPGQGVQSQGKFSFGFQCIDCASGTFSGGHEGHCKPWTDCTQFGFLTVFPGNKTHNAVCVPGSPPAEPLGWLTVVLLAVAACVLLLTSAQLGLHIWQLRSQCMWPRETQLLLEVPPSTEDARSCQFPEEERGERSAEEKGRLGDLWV


Legend:
[1] = biological target: T1, human GITR expressed on cells; assay: flow cytometry (FACS), MFI, CHO cells expressing human GITR
Procedure: FACS analysis was performed to evaluate the binding properties of exemplary anti-GITR humanized antibodies. Briefly, CHO cells over-expressing human GITR were harvested using trypsin-EDTA partial digestion followed by centrifugation at 1000 g for 3 minutes. The cells were re-suspended in cold PBS-BSA (2%) at 2×10⁶/mL and aliquoted to 100 μL/tube. The anti-GITR humanized antibodies were diluted in PBS-BSA (final concentrations were 0.01, 0.1, 1 and 10 μg/mL) and 50 μL of each was added to the CHO-GITR cells. The cell solutions were mixed and incubated at 4° C. in the dark for 2 hours. The cells were then washed with PBS-BSA twice. Secondary antibody conjugates (goat F(ab′)2 anti-human IgG—Fc (PE), pre-adsorbed, Abcam #ab98596) at 1/500 dilution and 100 μL/well was added and the cells were mixed and incubated 4° C. in dark for 1 hour. The cells were then washed twice with PBS-BSA, followed by fixation in 2% PFA/PBS, and were then subjected to FACS analysis.
[0270] (b) Agonistic Activity for GITR

[2] = biological target: T2, Human PD-L1 ECD fragment (His tag) (human, UniProt Q9NZQ7 19-238); assay: bridging ELISA: human CD137 ECD (mouse IgG2a Fc tag) coated, antibody titrated, then human PD-L1 ECD (His tag), HRP anti-His detection; A450-A620
T2 construct: extracellular domain; also called recombinant human PD-L1; not shown: His tag
T2 sequence (Q9NZQ7 19-238): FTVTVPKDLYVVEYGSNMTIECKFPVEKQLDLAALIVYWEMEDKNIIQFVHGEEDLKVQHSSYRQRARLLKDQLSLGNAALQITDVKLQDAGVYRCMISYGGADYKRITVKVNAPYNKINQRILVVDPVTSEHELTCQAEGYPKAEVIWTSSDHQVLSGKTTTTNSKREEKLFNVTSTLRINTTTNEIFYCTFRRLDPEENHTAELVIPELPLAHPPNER
Procedure: (§1) Exemplary anti-PD-L1/CD137 bi-specific antibodies were analyzed by ELISA for their simultaneous binding to recombinant human PD-L1 and human CD137. Briefly, the ECD portion of human CD137 protein (mouse IgG2a Fc tag) was diluted and coated onto an ELISA plate with a volume of 100 μL/well by incubation at 4° C. overnight. The next day, the plate was blocked with PBST-BSA buffer, then serially diluted samples of anti-PD-L1/CD137 bi-specific antibodies were pipetted into appropriate wells at 50 μL/well, and the plate was incubated for 1 h followed by Washing. Human PD-L1 ECD fragment (His tag) was added into the plate at 50 μL/well. After 1-hour incubation at room temperature, HRP-conjugated anti-His tag antibody was added into the plate at 100 μL/well and […]. The plate was incubated for 1 hour at room temperature followed by washing. TMB substrate solution was added at 100 μL/well and the color development was stopped by adding 100 uL/well Stop Solution (2N H₂SO₄). Absorbance at 450 nm and 620 nm was read by Tecan F200 Pro plate reader. GraphPad 7.0, “[Agonist] vs. response—Variable slope (four parameters)” was used to plot the binding data and calculate binding EC50 values.

[3] = biological target: T3, ECD portion of human CD137 protein (mouse IgG2a Fc tag) (human, UniProt Q07011 24-186); assay: as above
T3 construct: extracellular domain; also called recombinant human CD137; not shown: mouse IgG2a Fc tag
Procedure: as §1

[4] = biological target: T4, human PD-L1 expressed on cells (human, UniProt Q9NZQ7 19-290); assay: flow cytometry (FACS), MFI, CHO cells expressing human PD-L1
T4 construct: whole, on cells; also called human PD-L1 expressed on CHO cells; Raji-PD-L1 cells
T4 sequence (Q9NZQ7 19-290): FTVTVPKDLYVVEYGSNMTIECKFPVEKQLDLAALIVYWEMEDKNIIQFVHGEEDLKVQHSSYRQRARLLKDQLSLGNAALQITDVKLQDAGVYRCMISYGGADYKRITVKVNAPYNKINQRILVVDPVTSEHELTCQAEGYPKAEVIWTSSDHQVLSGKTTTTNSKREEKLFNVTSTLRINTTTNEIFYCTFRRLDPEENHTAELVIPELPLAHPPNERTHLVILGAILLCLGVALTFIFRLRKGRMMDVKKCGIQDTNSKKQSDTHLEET
Procedure: Exemplary anti-PD-1/CD137 bi-specific antibodies were analyzed by FACS for their binding properties to human PD-1 and/or human CD137 expressed on CHO cells. Briefly, cultured cells were harvested, counted and cell viability was evaluated using the Trypan Blue exclusion method. Viable cells were then adjusted to 2×10⁶ cells per mL in PBS containing 2% BSA. 100 μL of this cell suspension were further aliquoted per well into a V-bottom 96-well plate. […] After incubation for 2 hours at 4° C., cells were centrifuged (3 min, 1000× g), washed with 250 μL/well BSA-containing FACS Stain Buffer, resuspended and incubated for an additional 1 hour at 4° C. with 100 μL/well fluorochrome-conjugated anti-IgG antibody for detection of the bisepecific antibody. Cells were then washed with 250 μL/well BSA-containing FACS Stain Buffer, resuspended in 100 μL/well FACS Stain Buffer, acquired and analyzed using a FACS machine. Binding of the bispecific antibodies to human PD-1 or human CD137 expressing CHO cells were evaluated and the mean fluorescence intensity is plotted in histograms or dot plots.
Exemplary anti-PD-L1/CD137 bi-specific antibodies were analyzed by FACS for their binding properties to human PD-L1 or human CD137 expressed on CHO cells, following the procedures disclosed in Examples 1 above.

Binder | binding result [1] | binding result [2] | EC50 (read off the curve) [3] [µg/mL] | binding result [4]
TM676 (antibody, human IgG1, kappa, V domains shown, Humanized anti-GITR antibody; also called humanized LYV392 antibody (VH-1/IgG1 mut, VL-1/kappa)) VH: QVQLQESGPGLVKPSETLSLTCTVSGFSLTSYNVHWIRQPPGKGLEWIGVIWSGVRTDYNSVLKSRVTISVDTSKNQFSLKLSSVTAADTAVYYCARGTYDANYHDVMDAWGQGTMVTVSS VL: EIVLTQSPATLSLSPGERATLSCRASKSVRTGMHWYQQKPGQAPRLLIYGASNLESGIPARFSGSGSGTDFTLTISSLEPEDFAVYYCHQSWNHFTFGQGTKLEIKR | binds |  |  | 
Ly347 (bispecific antibody, human IgG1, kappa, Anti-PD-L1/CD137: Ly076 heavy chain; Ly076 light chain fused to Ly1630 scFv (VH-VL)) heavy: QVQLVQSGAEVKKPGASVKVSCKASGYTFTDFWMSWVRQAPGQGLEWMGQIYPNTGTTHSNEKFKGRVTMTRDTSTSTVYMELSSLRSEDTAVYYCARSYHISTTPNWFAYWGQGTLVTVSSASTKGPSVFPLAPSSKSTSGGTAALGCLVKDYFPEPVTVSWNSGALTSGVHTFPAVLQSSGLYSLSSVVTVPSSSLGTQTYICNVNHKPSNTKVDKKVEPKSCDKTHTCPPCPAPELLGPSVFLFPPKPKDTLMISRTPEVTCVVVDVSHEDPEVKFNWYVDGVEVHNAKTKPREEQYNSTYRVVSVLTVLHQDWLNGKEYKCKVSNKALPAPIEKTISKAKGQPREPQVYTLPPSREEMTKNQVSLTCLVKGFYPSDIAVEWESNGQPENNYKTTPPVLDSDGSFFLYSKLTVDKSRWQQGNVFSCSVMHEALHNHYTQKSLSLSPG light: DIQMTQSPSSLSASVGDRVTITCKASQNVYKKLEWYQQKPGKVPKVLIYHTNILQTGVPSRFSGSGSGTDYTLTISSLQPEDVATYYCYQWNSGPTFGGGTKVEIKRTVAAPSVFIFPPSDEQLKSGTASVVCLLNNFYPREAKVQWKVDNALQSGNSQESVTEQDSKDSTYSLSSTLTLSKADYEKHKVYACEVTHQGLSSPVTKSFNRGECGGGGSGGGGSGGGGSGGGGSQVQLVQSGAEVKKPGASVKVSCKASGYTFAGFEMHWVRQAPGQGLEWMGAIDPKTGGTDYNQKFKDRVTMTRDTSISTAYMELSRLRSDDTAVYYCARDLGYFDVWGQGTLVTVSSGGGGSGGGGSGGGGSGGGGSDIQMTQSPSSLSASVGDRVTITCRASQDIRSNLNWYQQKPGGAVKLLIYYTSRLHSGVPSRFSGSGSGTDYTLTISSLQPEDFATYFCQQSEKLPRTFGGGTKVEIR |  | binds | ~0.2 | binds
TM392 (antibody, human IgG4 S228P, kappa, V domains shown, Chimeric anti-GITR antibody; also called chimeric antibody TM392 (LYV392 with human constant regions)) VH: QVQLKESGPGLVQPSETLSLTCNVSGFSLTSYNVHWVRQPPGKGLEWLGVIWSGVRTDYNSVLKSRLSIRWDSSKNQVFLKMNSLQSEDTATYYCARGTYDANYHDVMDAWGQGASVTVSS VL: DTVLTQSPALAVSPGERVTISCRASKSVRTGMHWYQQKPGQQPKLLVYGASNLESGVPARFSGSGSGTDFTLTIDPVEADDIATYFCHQSWNHFTFGSGTKLEIKR | binds |  |  | 

Further lines, results first:

binding result [1] | binding result [2] | EC50 (read off the curve) [3] [µg/mL] | binding result [4] | Binder
 | binds | ~0.1 | binds | Ly348 (bispecific antibody, human IgG1, kappa, Anti-PD-L1/CD137: Ly076 heavy chain; Ly076 light chain fused to Ly1630 scFv (VL-VH)) heavy: QVQLVQSGAEVKKPGASVKVSCKASGYTFTDFWMSWVRQAPGQGLEWMGQIYPNTGTTHSNEKFKGRVTMTRDTSTSTVYMELSSLRSEDTAVYYCARSYHISTTPNWFAYWGQGTLVTVSSASTKGPSVFPLAPSSKSTSGGTAALGCLVKDYFPEPVTVSWNSGALTSGVHTFPAVLQSSGLYSLSSVVTVPSSSLGTQTYICNVNHKPSNTKVDKKVEPKSCDKTHTCPPCPAPELLGPSVFLFPPKPKDTLMISRTPEVTCVVVDVSHEDPEVKFNWYVDGVEVHNAKTKPREEQYNSTYRVVSVLTVLHQDWLNGKEYKCKVSNKALPAPIEKTISKAKGQPREPQVYTLPPSREEMTKNQVSLTCLVKGFYPSDIAVEWESNGQPENNYKTTPPVLDSDGSFFLYSKLTVDKSRWQQGNVFSCSVMHEALHNHYTQKSLSLSPG light: DIQMTQSPSSLSASVGDRVTITCKASQNVYKKLEWYQQKPGKVPKVLIYHTNILQTGVPSRFSGSGSGTDYTLTISSLQPEDVATYYCYQWNSGPTFGGGTKVEIKRTVAAPSVFIFPPSDEQLKSGTASVVCLLNNFYPREAKVQWKVDNALQSGNSQESVTEQDSKDSTYSLSSTLTLSKADYEKHKVYACEVTHQGLSSPVTKSFNRGECGGGGSGGGGSGGGGSGGGGSDIQMTQSPSSLSASVGDRVTITCRASQDIRSNLNWYQQKPGGAVKLLIYYTSRLHSGVPSRFSGSGSGTDYTLTISSLQPEDFATYFCQQSEKLPRTFGGGTKVEIRGGGGSGGGGSGGGGSGGGGSQVQLVQSGAEVKKPGASVKVSCKASGYTFAGFEMHWVRQAPGQGLEWMGAIDPKTGGTDYNQKFKDRVTMTRDTSISTAYMELSRLRSDDTAVYYCARDLGYFDVWGQGTLVTVSS
 | binds | ~0.1 | binds | Ly299 (bispecific antibody, human IgG1, kappa, Anti-PD-L1/CD137: Ly076 heavy chain fused to Ly1630 scFv (VL-VH); Ly076 light chain) heavy: QVQLVQSGAEVKKPGASVKVSCKASGYTFTDFWMSWVRQAPGQGLEWMGQIYPNTGTTHSNEKFKGRVTMTRDTSTSTVYMELSSLRSEDTAVYYCARSYHISTTPNWFAYWGQGTLVTVSSASTKGPSVFPLAPSSKSTSGGTAALGCLVKDYFPEPVTVSWNSGALTSGVHTFPAVLQSSGLYSLSSVVTVPSSSLGTQTYICNVNHKPSNTKVDKKVEPKSCDKTHTCPPCPAPELLGPSVFLFPPKPKDTLMISRTPEVTCVVVDVSHEDPEVKFNWYVDGVEVHNAKTKPREEQYNSTYRVVSVLTVLHQDWLNGKEYKCKVSNKALPAPIEKTISKAKGQPREPQVYTLPPSREEMTKNQVSLTCLVKGFYPSDIAVEWESNGQPENNYKTTPPVLDSDGSFFLYSKLTVDKSRWQQGNVFSCSVMHEALHNHYTQKSLSLSPGGGGGSGGGGSGGGGSGGGGSDIQMTQSPSSLSASVGDRVTITCRASQDIRSNLNWYQQKPGGAVKLLIYYTSRLHSGVPSRFSGSGSGTDYTLTISSLQPEDFATYFCQQSEKLPRTFGGGTKVEIRGGGGSGGGGSGGGGSGGGGSQVQLVQSGAEVKKPGASVKVSCKASGYTFAGFEMHWVRQAPGQGLEWMGAIDPKTGGTDYNQKFKDRVTMTRDTSISTAYMELSRLRSDDTAVYYCARDLGYFDVWGQGTLVTVSS light: DIQMTQSPSSLSASVGDRVTITCKASQNVYKKLEWYQQKPGKVPKVLIYHTNILQTGVPSRFSGSGSGTDYTLTISSLQPEDVATYYCYQWNSGPTFGGGTKVEIKRTVAAPSVFIFPPSDEQLKSGTASVVCLLNNFYPREAKVQWKVDNALQSGNSQESVTEQDSKDSTYSLSSTLTLSKADYEKHKVYACEVTHQGLSSPVTKSFNRGEC
binds |  |  |  | TM396 (antibody, human IgG4 S228P, kappa, V domains shown, Chimeric anti-GITR antibody from LYV396; also called chimeric antibody TM396 (IgG4)) VH: QVQLKESGPGLVQPSETLSLTCTVSGFSLTSYNVHWVRQPPGKGLEWLGVIWSGVRTDYNSVLKPRLSISRDSSKNKVFLNMNSLQSEDTATYYCARGTYDDNYHDVMDAWGQGASVTVSS VL: DTVLTQSPALAVSPGERVTISCRASKSVRTGMHWYQQKPGQQPKLLIYGASNLESGVPVRFSGSGSGTDFTLTIDPVEADDTATYFCQQSWNHFTFGSGTKLEIKR

Source: US20230406950A1 (LYVGEN BIOPHARMA, published 2023)
